Measurements as given in paper PMC10397247.
Read-outs that look alike come from different tables or passages of the source.

B1: P5-AA-1HGe-W (peptide)
chain: DENAALEAWIAALWAKNAALKAEIAALEG
B2: O5-AA (peptide)
chain: DENAALEAEIAALEAKNAALKAEIAALEG
B3: P5-AA-1HGe-Q (peptide)
chain: DENAALEAQIAALQAKNAALKAEIAALEG
B4: P5-AA-1HGe-T (peptide)
chain: DENAALEATIAALTAKNAALKAEIAALEG
B5: P5-AA-1HGe-M (peptide)
chain: DENAALEAMIAALMAKNAALKAEIAALEG
B6: P5-AA-1HGe-A (peptide)
chain: DENAALEAAIAALAAKNAALKAEIAALEG
B7: APC2724-AA (peptide)
chain: DEAAALEAKLAAEKAEAAALEAENAALEG
B8: P5-AA-1HGe-Y (peptide)
chain: DENAALEAYIAALYAKNAALKAEIAALEG
B9: P5-AA-1HGe-R (peptide)
chain: DENAALEARIAALRAKNAALKAEIAALEG
B10: P5-AA-1HGe-S (peptide)
chain: DENAALEASIAALSAKNAALKAEIAALEG
B11: P5-AA-1HGe-D (peptide)
chain: DENAALEADIAALDAKNAALKAEIAALEG
B12: P8mSN (peptide)
chain: DKISELKEENQQLEQKIQQLKEENSQLEY

Assays:
P6-AA-1HGe-A = target: T1, P6-AA-1HGe-A; assay: two-hybrid library CCmax; settings: mean of both orientations;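 further: natural log of median RNA to DNA barcode read ratio; higher means stronger binding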
T1 chain: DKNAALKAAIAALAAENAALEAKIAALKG

P6-AA-1HGe-W = target: T2, P6-AA-1HGe-W; assay: two-hybrid library CCmax; settings: mean of both orientations;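 further: natural log of median RNA to DNA barcode read ratio; higher means stronger binding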
T2 chain: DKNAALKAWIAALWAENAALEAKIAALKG

P6-AA-1HGe-R = target: T3, P6-AA-1HGe-R; assay: two-hybrid library CCmax; settings: mean of both orientations;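 further: natural log of median RNA to DNA barcode read ratio; higher means stronger binding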
T3 chain: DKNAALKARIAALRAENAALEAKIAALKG

P6-AA-1HGe-S = target: T4, P6-AA-1HGe-S; assay: two-hybrid library CCmax; settings: mean of both orientations;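 further: natural log of median RNA to DNA barcode read ratio; higher means stronger binding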
T4 chain: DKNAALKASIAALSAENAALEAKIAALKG

P6-AA-1HGe-Q = target: T5, P6-AA-1HGe-Q; assay: two-hybrid library CCmax; settings: mean of both orientations
T5 chain: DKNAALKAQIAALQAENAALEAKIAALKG

P6-AA-1HGe-M = target: T6, P6-AA-1HGe-M; assay: two-hybrid library CCmax; settings: mean of both orientations
T6 chain: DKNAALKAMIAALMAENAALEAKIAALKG

P6-AA-1HGe-D = target: T7, P6-AA-1HGe-D; assay: two-hybrid library CCmax
T7 chain: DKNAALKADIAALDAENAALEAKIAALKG

P6-AA-1HGe-H = target: T8, P6-AA-1HGe-H; assay: two-hybrid library CCmax; settings: mean of both orientations
T8 chain: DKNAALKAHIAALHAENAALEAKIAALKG

P6-AA-1HGe-T = target: T9, P6-AA-1HGe-T; assay: two-hybrid library CCmax; settings: mean of both orientations
T9 chain: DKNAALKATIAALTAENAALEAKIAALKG

O6-AA = target: T10, O6-AA; assay: two-hybrid library CCmax; settings: mean of both orientations
T10 chain: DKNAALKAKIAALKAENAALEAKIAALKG

O7-AA = target: T11, O7-AA; assay: two-hybrid library CCmax; settings: mean of both orientations
T11 chain: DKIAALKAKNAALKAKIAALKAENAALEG

P10-AA = target: T12, P10-AA; assay: two-hybrid library CCmax; settings: mean of both orientations
T12 chain: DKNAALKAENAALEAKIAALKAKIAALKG

O5-AA = target: T13, O5-AA; assay: two-hybrid library CCmax
T13 chain: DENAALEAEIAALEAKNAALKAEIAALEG

O8-AA = target: T14, O8-AA; assay: two-hybrid library CCmax; settings: mean of both orientations
T14 chain: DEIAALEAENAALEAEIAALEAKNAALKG

P9-AA = target: T15, P9-AA; assay: two-hybrid library CCmax; settings: mean of both orientations
T15 chain: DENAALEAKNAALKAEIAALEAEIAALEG

APC2724-AA = target: T16, APC2724-AA; assay: two-hybrid library CCmax
T16 chain: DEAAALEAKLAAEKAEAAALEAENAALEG

APC542-AA = target: T17, APC542-AA; assay: two-hybrid library CCmax; settings: mean of both orientations
T17 chain: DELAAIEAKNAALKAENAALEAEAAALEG

APC8516-AA = target: T18, APC8516-AA; assay: two-hybrid library CCmax; settings: mean of both orientations
T18 chain: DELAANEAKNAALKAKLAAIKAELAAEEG

APC9291-AA = target: T19, APC9291-AA; assay: two-hybrid library CCmax; settings: mean of both orientations
T19 chain: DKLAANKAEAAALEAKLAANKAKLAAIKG

APC9141-AA = target: T20, APC9141-AA; assay: two-hybrid library CCmax; settings: mean of both orientations
T20 chain: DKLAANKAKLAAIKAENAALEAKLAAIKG

APC3881-AA = target: T21, APC3881-AA; assay: two-hybrid library CCmax; settings: mean of both orientations
T21 chain: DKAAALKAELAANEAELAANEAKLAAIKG

APC4100-AA = target: T22, APC4100-AA; assay: two-hybrid library CCmax
T22 chain: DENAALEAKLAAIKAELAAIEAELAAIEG

APC4336-AA = target: T23, APC4336-AA; assay: two-hybrid library CCmax; settings: mean of both orientations
T23 chain: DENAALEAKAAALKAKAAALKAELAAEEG

APC9806-AA = target: T24, APC9806-AA; assay: two-hybrid library CCmax; settings: mean of both orientations
T24 chain: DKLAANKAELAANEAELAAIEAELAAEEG

APC9182-AA = target: T25, APC9182-AA; assay: two-hybrid library CCmax; settings: mean of both orientations
T25 chain: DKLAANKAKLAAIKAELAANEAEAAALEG

APC3354-AA = target: T26, APC3354-AA; assay: two-hybrid library CCmax; settings: mean of both orientations
T26 chain: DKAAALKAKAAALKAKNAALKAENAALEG

APC5531-AA = target: T27, APC5531-AA; assay: two-hybrid library CCmax; settings: mean of both orientations
T27 chain: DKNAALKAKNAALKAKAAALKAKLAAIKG

APC3265-AA = target: T28, APC3265-AA; assay: two-hybrid library CCmax; settings: mean of both orientations
T28 chain: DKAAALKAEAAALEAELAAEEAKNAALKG

APC2811-AA = target: T29, APC2811-AA; assay: two-hybrid library CCmax; settings: mean of both orientations
T29 chain: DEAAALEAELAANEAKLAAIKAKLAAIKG

APC5009-AA = target: T30, APC5009-AA; assay: two-hybrid library CCmax; settings: mean of both orientations
T30 chain: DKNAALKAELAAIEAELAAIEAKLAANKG

APC6088-AA = target: T31, APC6088-AA; assay: two-hybrid library CCmax; settings: mean of both orientations
T31 chain: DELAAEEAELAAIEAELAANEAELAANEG

APC7524-AA = target: T32, APC7524-AA; assay: two-hybrid library CCmax; settings: mean of both orientations
T32 chain: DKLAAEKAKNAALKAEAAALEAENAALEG

APC2981-AA = target: T33, APC2981-AA; assay: two-hybrid library CCmax; settings: mean of both orientations
T33 chain: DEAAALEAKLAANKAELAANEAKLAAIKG

APC8401-AA = target: T34, APC8401-AA; assay: two-hybrid library CCmax; settings: mean of both orientations
T34 chain: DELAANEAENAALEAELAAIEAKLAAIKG

APC3323-AA = target: T35, APC3323-AA; assay: two-hybrid library CCmax; settings: mean of both orientations
T35 chain: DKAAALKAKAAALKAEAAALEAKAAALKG

P9mSN = target: T36, P9mSN; assay: two-hybrid library CCNG1
T36 chain: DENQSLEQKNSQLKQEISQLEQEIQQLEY

P8mSN = target: T37, P8mSN; assay: two-hybrid library CCNG1
T37 chain: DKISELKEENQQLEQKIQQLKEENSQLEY

| Binder | interaction score (P6-AA-1HGe-A) | interaction score (P6-AA-1HGe-W) | interaction score (P6-AA-1HGe-R) | interaction score (P6-AA-1HGe-S) | interaction score (P6-AA-1HGe-Q) | interaction score (P6-AA-1HGe-M) | interaction score (P6-AA-1HGe-D; mean of both orientations) | interaction score (P6-AA-1HGe-H) | interaction score (P6-AA-1HGe-T) | also measured |
| --- | --- | --- | --- | --- | --- | --- | --- | --- | --- | --- |
| B1 | 1.97 | 0.892 | 1.42 | 1.46 | 2.17 | 1.92 | 0.67 | 1.34 | 2.11 | – |
| B2 | 2.15 | 2.02 | 2.38 | 2.12 | 2.4 | 2.3 | 0.905 | 2.44 | 2.21 | interaction score (O6-AA): 1.88; interaction score (O7-AA): -0.71; interaction score (P10-AA): 0.434; interaction score (O5-AA): -1.71; interaction score (O8-AA): -0.935; interaction score (P9-AA): -1.56 |
| B3 | 2.25 | 1.97 | 2.05 | 2.03 | 2.07 | 2.3 | 1.58 | 2.05 | 2.32 | – |
| B4 | 2.2 | 1.71 | 2.02 | 1.91 | 2.32 | 2.18 | – | 2.03 | 2.05 | interaction score (P6-AA-1HGe-D): 1.95 |
| B5 | 2.5 | 2.11 | 1.93 | 1.92 | 2.27 | 2.35 | 1.82 | 2.03 | 2.3 | – |
| B6 | 2.12 | 1.57 | 2.03 | 1.63 | 2.31 | 2.21 | 1.06 | 1.73 | 2.02 | – |
| B7 | – | – | – | – | – | – | – | – | – | interaction score (APC2724-AA): -1.55; interaction score (APC542-AA): -1.75; interaction score (APC8516-AA): -1.9; interaction score (APC9291-AA): -1.76; interaction score (APC9141-AA): -3.52; interaction score (APC3881-AA): -2.62; interaction score (APC4100-AA): -1.68; interaction score (APC4336-AA): -2.23; interaction score (APC9806-AA): -1.79; interaction score (APC9182-AA): -1.95; interaction score (APC3354-AA): -1.48; interaction score (APC5531-AA): -1.53; interaction score (APC3265-AA): -1.62; interaction score (APC2811-AA): -1.76; interaction score (APC5009-AA): -1.67; interaction score (APC6088-AA): -1.76; interaction score (APC7524-AA): -1.54; interaction score (APC2981-AA): -1.68; interaction score (APC8401-AA): -1.54; interaction score (APC3323-AA): -1.8 |
| B8 | 1.95 | 1.32 | 1.82 | 1.94 | 2.22 | 1.95 | 1.37 | 1.95 | 2.24 | – |
| B9 | 2.25 | 1.25 | 1.45 | 1.48 | 1.9 | 1.53 | 1.74 | 1.64 | 1.66 | – |
| B10 | 1.91 | 0.993 | 2.01 | 1.13 | 2.1 | 1.86 | 0.0672 | 1.75 | 1.76 | – |
| B11 | 0.812 | -0.238 | 1.62 | -0.145 | 1.12 | 0.758 | -1.28 | 0.69 | 1.14 | – |
| B12 | – | – | – | – | – | – | – | – | – | interaction score (P9mSN): -1.04; interaction score (P8mSN): -0.489 |
